Consider 4 molecules from patent publication US20160002672A1, “PRODUCTION OF ISOPRENE, ISOPRENOID, AND ISOPRENOID PRECURSORS USING AN ALTERNATIVE LOWER MEVALONATE PATHWAY” (DANISCO US INC., priority 2012, published 2016).

As usually defined, the Km is the concentration of substrate that gives half-maximal velocity.

Values joined by “and” are separate entries in the source; they are usually repeats but may differ in a detail not shown here. Equal entries are not always repeated. Some results are limits rather than exact numbers.

A short description of data set [1]: In vitro metabolite measurement, substrate conversion by crude E. coli lysate, substrate MVA. The class given is biochemical. Conditions: crude extract from E. coli DH10b overexpressing S378Pa3-2. As for the experimental part: (§1) In vitro assays were done with crude extracts from E. coli DH10b overexpressing pMCM2212. […] Negative control assays were done with extracts of E. coli harboring pTrcHis2b without insert. Substrates for in vitro conversions were mevalonate (MVA), mevalonate phosphate (MVP) also referred to as mevalonate 5-phosphate, mevalonate diphosphate (MVPP) also referred to as mevalonate 5-pyrophosphate, and isopentenyl phosphate (IP). Substrate conversion and product formation was analyzed by LC/MS.
(§2) Mass spectrometric analysis of metabolites was performed using a TSQ Quantim triple quadrupole instrument (Thermo Scientific). System control, data acquisition, and data analysis were done with XCalibur and LCQuan software (Thermo Scientific). About 10 μL samples were applied to a C18 Synergi MAX-RP HPLC column (150×2 mm, 4 uM, 80 A, Phenomenex) equipped with the manufacturer-recommended guard cartridge. The column was eluted with a gradient of 15 mM acetic acid+10 mM tributylamine in MilliQ-grade water (solvent A) and LCMS-grade methanol from Honeywell, Burdick & Jackson (solvent B). […] Concentrations of metabolites in cell extracts were determined based on calibration curves obtained by injection of commercial standards dissolved in 20% methanol/50 mM NH4Ac buffer (pH 7.0) to 0.5 ppm to 50 ppm final concentration. […]

Data set [2] is described as follows: Kinetic characterization of decarboxylases (coupled spectrophotometric assay), diphosphomevalonate as substrate. The class given is biochemical. Conditions: 34° C., 5 mM ATP, 10-250 μM (R)-diphosphomevalonate; for kcat ± SD, Diphosphomevalonate: * using 1 mM substrate; for Km: read-out: KM ± SD, Diphosphomevalonate. As for the experimental part: (§3) PMevDCs were incubated in the presence of mevalonate, phosphomevalonate, diphosphomevalonate, ATP, MgCl2 and the products of the reactions were confirmed by LC-MS. Mevalonate decarboxylase (MVD) from Saccharomyces cerevisiae was used as a reference. The catalytic activities of the decarboxylases were measured using a modified spectrophotometric assay that coupled ADP formation to pyruvate synthesis and reduction to lactate. The initial rate of disappearance of NADH was monitored at 340 nm on a SpectraMax M5 (Molecular Devices) to measure the reaction rate catalyzed by the PMevDCs. Samples for reaction rate studies contained 0.8 mM phosphoenolpyruvate, 0.05 mM DTT, 0.32 mM NADH, 10 mM MgCl2, 4 U lactate dehydrogenase, 4 U pyruvate kinase, 5 mM ATP and 10-250 μM (R)-phosphomevalonate or 10-250 μM (R)-diphosphomevalonate. All reactions were performed at 34° C. Reaction rate data was processed using Microsoft Excel and kinetic parameters were determined using Kaleidagraph.

Data set [3] is described as follows: SDS-PAGE analysis of His-tagged and TEV protease cleaved PMevDCs and IPKs (solubility). The note with it: FIG. 9. The class given is physicochemical. Here is the method:
Strains MCM2257, MCM2258, MCM2259, MCM2260, MCM2261, and MCM2262 were inoculated in 1 liter of LB medium containing the appropriate antibiotic and incubated at 34° C. for 7 hours from overnight cultures grown at 34° C. in LB broth containing the appropriate antibiotic (Table 7). Cultures at an OD 0.5-0.7 were induced with 200 μM IPTG. After induction, cells were harvested by centrifugation at 10000×g for 10 minutes. After removal of the supernatant, the cell pellets were resuspended in 40 mL lysis buffer containing 50 mM KPO4, pH 8.0, 0.3 M NaCl, 0.02 mM imidizole, 1 mg/mL lysozyme, and 1 mg/mL DNAase. The cells were lysed using a french pressure cell at 14,000 psi and the cell lysate was centrifuged at 50,000×g for 1 hour. The supernatant was collected, passed over a Ni-affinity resin before the resin was washed with 10 column volumes of lysis buffer containing 50 mM imidazole. The protein was eluted with 5 column volumes of lysis buffer containing 250 mM imidizole. Collected fractions were concentrated and passed over PD-10 columns for buffer exchange and the final collected protein samples were >95% pure according to SDS-PAGE analysis. The purified samples were incubated with TEV protease overnight at 4° C. to remove histidine tags from the purified proteins. The digested samples were subsequently passed over Ni-affinity resin and the flow-through was collected and analyzed by SDS-PAGE.
H. aurantiacus PMevDC (lanes 2 and 3), H. aurantiacus IPK (lanes 4 and 5), and S378Pa3-2 PMevDC (lanes 6 and 7) were all soluble whether they were expressed with an attached His-tag or without a His-Tag (FIG. 9).

A short description of data set [4]: In vitro metabolite measurement, substrate conversion by crude E. coli lysate, substrate IP. Format: biochemical. Conditions: crude extract from E. coli DH10b overexpressing S378Pa3-2. As for the experimental part: as §1, §2
Data set [5] can be described thus: In vitro metabolite measurement, substrate conversion by crude E. coli lysate, substrate MVP. The class given is biochemical. The note with it: crude extract from E. coli DH10b overexpressing S378Pa3-2. Here is the method: as §1, §2
A short description of data set [6]: Kinetic characterization of decarboxylases (coupled spectrophotometric assay), phosphomevalonate as substrate. Format: biochemical. Conditions: 34° C., 5 mM ATP, 10-250 μM (R)-phosphomevalonate, * using 1 mM substrate. As for the experimental part: as §3
Data set [7] in a line: In vitro metabolite measurement, substrate conversion by crude E. coli lysate, substrate MVPP. Format: biochemical. Conditions: crude extract from E. coli DH10b overexpressing S378Pa3-2. Here is the method: as §1, §2
Another data set deals with screening host V. 05. Kind of data set: Activity-based screening for PMevDC in MVA-auxotrophic screening host. The class given is cell-based, E. coli. The note with it: for growth / complementation of the lower MVA pathway in screening host in presence of MVA: 500 μM MVA.
The mark [8] stands for this setting: listed as Herpetosiphon aurantiacus ATCC 23779 PMevDC.

B1: S378Pa3-2 PMevDC: phosphomevalonate decarboxylase isolated from a soil metagenomic library, SEQ ID NO: 18 (protein)
chain: MDYYYRVINNNEIPMKSPEFLEVSALAHPNIAFIKYWGNRDNDLRLPCNGSLSMNLSGLETKTSVQFDPSLSADQFKLSGKPIEWDALRRVSDFLEIVRDLAGISFFAKVESENSFPSGAGIASSASAFAALALAASKAAGLSLDEEALSRLARRGSGSACRSIPDGFVEWQAGSTDQDSFAWSIAPADHWDLVDLICVLNSEHKTVGSTGGHALASTSDLHLLRQERVEERIEICRKAILDRDFEHFASVVEEDSNLMHAVMRTSKPPLNYWLPETEVILWKVIHWRKKGIPVCSTVDAGPNVHVLTLSSEAEKVEALLKECPGVQSIFKARAGQGAQLI
modifications: Isolated from a metagenomic library constructed from soil samples
Consider B1, for which the “use of MVA as substrate” value in data set [1] was “not used as substrates”. Besides, in data set [2], the “kcat ± SD, Diphosphomevalonate” value was 1.09 s⁻¹ and 1.09 ± 0.09 s⁻¹. In addition, the Km in data set [2] is 22 µM. The “solubility of expressed enzyme with or without His-tag” value (shortened to “solubility … with or without His-tag”) in data set [3] is reported as “soluble”. Moreover, the “use of IP as substrate” value in data set [4] is reported as “not used as substrates”. In addition, in data set [5], the “activity of crude extract on MVP” value was “activity on MVP”. Moreover, the “kcat ± SD, Phosphomevalonate” value in data set [6] was 2.9 s⁻¹ and 2.9 ± 0.5 s⁻¹. The “activity of crude extract on MVPP” value in data set [7] was “some activity on MVPP”. Besides, the “growth / complementation of the lower MVA pathway in screening host in presence of MVA” value in the data set on screening host V. 05 is “sustained growth”; with screening host V. 05 (listed as cds#2) it was “able to complement the lower MVA pathway”. In the data set with screening host V. 05 (Fosmidomycin 32 μg/ml, 500 μM MVA supplied), the “growth in presence of Fosmidomycin” value is listed as “grew unrestricted”.

B2: Herpetosiphon PMevDC: Herpetosiphon aurantiacus phosphomevalonate decarboxylase, SEQ ID NO: 16, Genbank YP_001544383 (protein, listed as Herpetosiphon aurantiacus)
chain: MKQLSHAATAVACANIAFIKYWGQHDSQLTLPTNGSISMNLDGCLTETTVQCLPEAVDDSVWLALSGGEEVQAKGRQFERVIQQIERLRQLAGVTERVEVRSRNNFPSDAGIASSAAAFAALTRAAASAFRLELDEAELSRLTRLSGSGSACRSIPAGFVEWYNDGTHAGSYAAQIAPPEHWNLVDIVAVISTEAKHVASTSGHSVATTSPYFSVRLEGIEQRLADVRQGILERDIERLGRASEADAMSMHVIAMTAQPSTMYWLPGTLAVMQAVQRWRAQDNLQSYWTIDAGPNVHVICEAKDAPEVEARLCELDAVQWTIVNGAGPEARLVG
Regarding B2, the “kcat ± SD, Diphosphomevalonate” value in data set [2] is reported as <0.02* s^−1; in data set [2] (setting [8]) it was “less than 0.02 s^−1”. For the same molecule, the “solubility … with or without His-tag” value in data set [3] is given as “soluble”. Also, the “kcat ± SD, Phosphomevalonate” value in data set [6] was found to be 3.3 ± 0.2 s⁻¹; in data set [6] (setting [8]), 3.3 s⁻¹.

B3: H. aurantiacus IPK: Herpetosiphon aurantiacus isopentenyl phosphate kinase, SEQ ID NO: 19, Genbank YP_001545053 (protein, listed as Herpetosiphon aurantiacus)
chain: MNKPIFIKLGGSMLTDKTTAERLVDQTLKQVVTDLSAWRQAHPNQPILLGHGGGSFGHYWAERYQTAQGIINEQSWWGVARVADAMARLNRAVVGACLDADLPAIGIQPMASSLANAGEIQQIGSQPLATLLAAGTIPVIYGDVLLDVAQGCTIASTERIFSALVGPLQPTQIILLGEQAVYDADPRQHADAQPIPLINRTNYATIIARLGGSHGVDVTGGMRNKVEAMWQLVQQAPQLEIWICGPQQLQSALSGQLNGPGTIIKLD
Turning to B3, the “solubility … with or without His-tag” value in data set [3] is recorded as “soluble”.

B4: S. cerevisiae MVD: Mevalonate decarboxylase (MVD) from Saccharomyces cerevisiae used as a reference (protein, UniProt P32377 1-396, looked up)
Diphosphomevalonate …: MTVYTASVTAPVNIATLKYWGKRDTKLNLPTNSSISVTLSQDDLRTLTSAATAPEFERDTLWLNGEPHSIDNERTQNCLRDLRQLRKEMESKDASLPTLSQWKLHIVSENNFPTAAGLASSAAGFAALVSAIAKLYQLPQSTSEISRIARKGSGSACRSLFGGYVAWEMGKAEDGHDSMAVQIADSSDWPQMKACVLVVSDIKKDVSSTQGMQLTVATSELFKERIEHVVPKRFEVMRKAIVEKDFATFAKETMMDSNSFHATCLDSFPPIFYMNDTSKRIISWCHTINQFYGETIVAYTFDAGPNAVLYYLAENESKLFAFIYKLFGSVPGWDKKFTTEQLEAFNHQFESSNFTARELDLELQKDVARVILTQVGSGPQETNESLIDAKTGLPKE
For the molecule B4, in data set [2], the “kcat ± SD, Diphosphomevalonate” value was 11.6 s⁻¹ and 11.6 ± 0.6 s⁻¹; the Km is 44 µM.
